Test results reported in patent publication US20250163162A1.

T1: IL10Rα and IL2Rγ on human primary cells (CD8 T cells, CD4 T cells, monocytes) (human) (UniProt Q13651)
T1 sequence (looked up) 1: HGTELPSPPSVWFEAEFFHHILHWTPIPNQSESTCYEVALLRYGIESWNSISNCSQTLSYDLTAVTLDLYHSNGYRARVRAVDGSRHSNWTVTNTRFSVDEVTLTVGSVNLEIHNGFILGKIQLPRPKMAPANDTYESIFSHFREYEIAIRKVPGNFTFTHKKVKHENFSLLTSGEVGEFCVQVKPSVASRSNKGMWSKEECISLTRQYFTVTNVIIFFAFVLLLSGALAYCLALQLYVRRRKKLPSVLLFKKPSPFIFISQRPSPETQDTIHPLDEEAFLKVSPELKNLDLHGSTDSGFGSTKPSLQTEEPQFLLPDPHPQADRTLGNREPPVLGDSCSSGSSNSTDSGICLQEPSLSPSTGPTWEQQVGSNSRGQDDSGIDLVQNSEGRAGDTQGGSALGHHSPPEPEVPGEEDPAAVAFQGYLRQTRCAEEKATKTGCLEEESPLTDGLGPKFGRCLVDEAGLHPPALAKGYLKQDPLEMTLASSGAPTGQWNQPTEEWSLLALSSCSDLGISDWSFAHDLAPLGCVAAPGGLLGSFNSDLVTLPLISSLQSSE
T1 sequence (looked up) 2: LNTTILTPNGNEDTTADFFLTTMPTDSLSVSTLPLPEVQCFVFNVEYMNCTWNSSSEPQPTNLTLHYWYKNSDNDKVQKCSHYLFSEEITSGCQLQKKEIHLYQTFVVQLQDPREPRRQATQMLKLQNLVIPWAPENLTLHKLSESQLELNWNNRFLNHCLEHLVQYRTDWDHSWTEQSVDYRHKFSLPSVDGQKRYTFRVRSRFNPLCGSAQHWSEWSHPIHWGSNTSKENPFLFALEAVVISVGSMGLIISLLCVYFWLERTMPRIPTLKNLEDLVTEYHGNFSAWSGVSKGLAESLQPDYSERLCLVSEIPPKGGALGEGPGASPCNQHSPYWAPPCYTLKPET


Biological target: T1, IL10Rα and IL2Rγ on human primary cells (CD8 T cells, CD4 T cells, monocytes) (human)
Test: cell-based or functional assay

Row | pSTAT3 (MFI) in CD4 T cells at 0.0001 µM | pSTAT3 (MFI) in CD4 T cells at 0.01 µM | pSTAT3 (MFI) in CD4 T cells at 0.1 µM | pSTAT3 (MFI) in CD4 T cells at 1 µM | pSTAT3 (MFI) in CD4 T cells at 10 µM | pSTAT3 (MFI) in CD4 T cells at 100 µM | pSTAT3 (MFI) in CD8 T cells at 0.0001 µM | pSTAT3 (MFI) in CD8 T cells at 0.001 µM | pSTAT3 (MFI) in CD8 T cells at 0.01 µM | pSTAT3 (MFI) in CD8 T cells at 0.1 µM | pSTAT3 (MFI) in CD8 T cells at 1 µM | pSTAT3 (MFI) in CD8 T cells at 10 µM | pSTAT3 (MFI) in CD8 T cells at 100 µM | pSTAT3 (MFI) in monocytes at 0.0001 µM | pSTAT3 (MFI) in monocytes at 0.001 µM | pSTAT3 (MFI) in monocytes at 0.01 µM | pSTAT3 (MFI) in monocytes at 0.1 µM | pSTAT3 (MFI) in monocytes at 1 µM | pSTAT3 (MFI) in monocytes at 10 µM | pSTAT3 (MFI) in monocytes at 100 µM | Binder | also measured
1 | 13200 MFI | 12800 MFI | 13600 MFI | 13000 MFI | 11800 MFI | 10200 MFI | 7960 MFI | 8500 MFI | 7660 MFI | 8160 MFI | 7720 MFI | 8300 MFI | 7000 MFI | 4220 MFI | 4680 MFI | 4560 MFI | 4470 MFI | 4750 MFI | 4890 MFI | 4730 MFI | hIL10Ra_VHH14-hIL2Rg_VHH19, linker GGSGGS, tag his (bispecific antibody, not shown: small tags and cut ends) QVQLQESGGGSVQAGGSLRLSCGASGYTYSSYCMGWFRQVPGKEREGVAVIDSDGSTSYADSVKGRFTISKDNGKNTLYLQMNSLKPEDTAMYYCAADLGHYRPPCGVLYLGMDYWGKGTQVTVSSGGSGGSQVQLQESGGGSVQAGGSLRLSCTASGFTFDDREMNWYRQAPGNECELVSTISSDGSTYYADSVKGRFTISQDNAKNTVYLQMDSVKPEDTAVYYCAADFMIAIQAPGAGCWGQGTQVTVSS | pSTAT3 (MFI) in CD4 T cells at 0.001 µM: 13900 MFI
2 | 11700 MFI | 13600 MFI | 10900 MFI | 12900 MFI | 12600 MFI | 11600 MFI | 7400 MFI | 8110 MFI | 8110 MFI | 7100 MFI | 8200 MFI | 8410 MFI | 7900 MFI | 4040 MFI | 4820 MFI | 4010 MFI | 4430 MFI | 4790 MFI | 4930 MFI | 4930 MFI | hIL10Ra_VHH14-hIL2Rg_VHH19, linker GS, tag his (bispecific antibody, not shown: small tags and cut ends) QVQLQESGGGSVQAGGSLRLSCGASGYTYSSYCMGWFRQVPGKEREGVAVIDSDGSTSYADSVKGRFTISKDNGKNTLYLQMNSLKPEDTAMYYCAADLGHYRPPCGVLYLGMDYWGKGTQVTVSSGSQVQLQESGGGSVQAGGSLRLSCTASGFTFDDREMNWYRQAPGNECELVSTISSDGSTYYADSVKGRFTISQDNAKNTVYLQMDSVKPEDTAVYYCAADFMIAIQAPGAGCWGQGTQVTVSS | pSTAT3 (MFI) in CD4 T cells at 0.001 µM: 12800 MFI
3 | 12800 MFI | 11100 MFI | 10200 MFI | 9970 MFI | 11400 MFI | 10300 MFI | 7840 MFI | 7520 MFI | 6920 MFI | 6780 MFI | 6480 MFI | 7330 MFI | 6930 MFI | 4230 MFI | 4710 MFI | 4700 MFI | 4690 MFI | 4620 MFI | 4550 MFI | 4860 MFI | hIL10Ra_VHH14-hIL2Rg_VHH19, linker …, tag his (bispecific antibody, not shown: small tags and cut ends) QVQLQESGGGSVQAGGSLRLSCGASGYTYSSYCMGWFRQVPGKEREGVAVIDSDGSTSYADSVKGRFTISKDNGKNTLYLQMNSLKPEDTAMYYCAADLGHYRPPCGVLYLGMDYWGKGTQVTVSSGGSGGSGGSGQVQLQESGGGSVQAGGSLRLSCTASGFTFDDREMNWYRQAPGNECELVSTISSDGSTYYADSVKGRFTISQDNAKNTVYLQMDSVKPEDTAVYYCAADFMIAIQAPGAGCWGQGTQVTVSS | pSTAT3 (MFI) in CD4 T cells at 0.001 µM: 11800 MFI
4 | 10700 MFI | 9550 MFI | 11300 MFI | 12700 MFI | 13200 MFI | 11600 MFI | 7060 MFI | 7520 MFI | 6330 MFI | 7070 MFI | 7870 MFI | 8430 MFI | 7970 MFI | 4670 MFI | 4820 MFI | 4360 MFI | 4420 MFI | 4760 MFI | 4880 MFI | 4620 MFI | hIL10Ra_VHH14-hIL2Rg_VHH19, linker GGGSGGGS, tag his (bispecific antibody, not shown: small tags and cut ends) QVQLQESGGGSVQAGGSLRLSCGASGYTYSSYCMGWFRQVPGKEREGVAVIDSDGSTSYADSVKGRFTISKDNGKNTLYLQMNSLKPEDTAMYYCAADLGHYRPPCGVLYLGMDYWGKGTQVTVSSGGGSGGGSQVQLQESGGGSVQAGGSLRLSCTASGFTFDDREMNWYRQAPGNECELVSTISSDGSTYYADSVKGRFTISQDNAKNTVYLQMDSVKPEDTAVYYCAADFMIAIQAPGAGCWGQGTQVTVSS | pSTAT3 (MFI) in CD4 T cells at 0.0013 µM: 12000 MFI
